Literature values, collected in paper PMC9623233 (Clinical Cancer Research, 2022).
Where two headings read alike, the source gives them in different places.

Details: cited from earlier work

In the case of “mirvetuximab soravtansine: α-FR–targeted antibody–drug conjugate with maytansine payload”, the Pneumonitis (combined with bevacizumab) is listed as 9% and the Pneumonitis (single agent) is listed as 2.9%.
